We go through two substances from article PMC11656743.

Where “and” joins values, the source holds several entries; their conditions need not be identical. Equal values may be shown once.

Test [1] deals with σ^A, recombinant, tag cleaved (strain LK2832) (M. smegmatis) (UniProt A0QW02). Kind of test: AUC; sedimentation velocity, 20°C, 50 mM HEPES pH 7.5, 100 mM NaCl, 0.5 mM TCEP, 3 mM NaN3; σ^A 19.4 µM, MoaB2 77.6 µM, σ^A:MoaB2 mixtures 1:0.1 to 1:4.
Test [2] deals with MoaB2, recombinant, tag cleaved (strain LK2936) (M. smegmatis) (UniProt A0R3I5). Described as above.
The target is the same in test [3]. Description: SEC; Superdex 200 Increase 10/300, 25 mM Tris-HCl pH 7.5, 50 mM NaCl, 1 mM DTT, 15°C; fractions on SDS-PAGE.
Test [4] deals with σ^A, recombinant, tag cleaved (strain LK2832) (M. smegmatis) (UniProt A0QW02). Description: AUC; multi-signal sedimentation velocity (absorbance 280 nm and interference) at σ^A:MoaB2 molar ratio 1:0.3.
Test [5] deals with MoaB2 with C-terminal His-tag, for crystallography (strain LK2615) (M. smegmatis). Kind of test: dynamic light scattering; 5 mg/mL MoaB2 in 20 mM Tris-HCl pH 8.0, 50 mM NaCl, 3 mM NaN3, 25°C.
Test [6] has the same target. Description: crystal structure; X-ray, 2.53 Å; crystals from 0.2 M calcium chloride, 14% PEG 400, 0.1 M sodium-HEPES pH 7.5.

By Kd is commonly meant the equilibrium constant for the complex coming apart. Usually stoichiometry N stands for the number of molecules, sites or subunits per partner or assembly. As to “MoaB2, recombinant, tag cleaved (strain LK2936) (from UniProt A0R3I5 1-178) (natural protein)”, the Kd in test [1] was under 1000 nM. Further, the stoichiometry N in test [1] was 1 σ^A:MoaB2; in test [2], 6 and 3; in test [3], 6; in test [4], 1 σ^A:MoaB2.
On to “MoaB2 with C-terminal His-tag, for crystallography (strain LK2615) (natural protein)”, for which the stoichiometry N in test [5] and in test [6] was 6 each time.
